Experimental findings from patent publication US20220127355A1 (INTEGRAL MOLECULAR, published 2022) are described below.

The term EC50 (read off the curve) denotes the concentration at which the effect is half-maximal. The low end stands for a more potent agent, the high end for a less potent agent. Usually Kd stands for the constant that tells how readily two partners part at equilibrium. A higher Kd goes with lower affinity.

In one assay the target is T1, Claudin 4 (UniProt O14493 1-209).
T1 construct: also called CLDN4
T1 sequence (looked up): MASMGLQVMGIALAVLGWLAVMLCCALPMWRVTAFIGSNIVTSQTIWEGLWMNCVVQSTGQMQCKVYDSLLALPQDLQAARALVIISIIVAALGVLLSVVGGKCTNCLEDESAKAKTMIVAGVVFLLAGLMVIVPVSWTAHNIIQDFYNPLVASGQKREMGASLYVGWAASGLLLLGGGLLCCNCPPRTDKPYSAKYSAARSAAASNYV
Nature of the assay: flow cytometry, HEK-293T cells transiently transfected with the indicated claudin; pUC19 = empty vector control. The procedure:
(§1) FIG. 2 illustrates the results of a binding assay showing that Claudin 6 MAbs bind to human Claudin 6 preferentially over other Claudin proteins. Human embryonic kidney 293T (HEK-293T) cells were transiently transfected with DNA for the indicated Claudin protein or empty vector along with GFP (pUC) for 22 hours.

In another assay the target is T2, Claudin 6 (human) (human, UniProt P56747 1-220).
T2 construct: Expressed on transfected HEK-293T cells or naturally on PA-1 cells for flow cytometry; For the Octet KD values it was the intact protein embedded in virus-like particles (lipoparticles); also called hsCLDN6; CLDN6
T2 chain: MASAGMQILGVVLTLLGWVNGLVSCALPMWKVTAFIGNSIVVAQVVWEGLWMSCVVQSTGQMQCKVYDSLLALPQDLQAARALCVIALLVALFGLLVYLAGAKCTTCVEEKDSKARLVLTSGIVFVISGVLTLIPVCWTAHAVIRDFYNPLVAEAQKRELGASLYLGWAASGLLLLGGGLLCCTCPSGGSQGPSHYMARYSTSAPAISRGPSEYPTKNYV
Nature of the assay: flow cytometry, PA-1 cells naturally expressing Claudin-6. On the technique in general: In flow cytometry, cells or beads pass a laser one at a time.

In assay [1] the target is T3, Claudin 9 (UniProt O95484 1-217).
T3 construct: Octet KD values: intact claudin protein embedded in virus-like particles (lipoparticles); also called CLDN9
T3 sequence (looked up): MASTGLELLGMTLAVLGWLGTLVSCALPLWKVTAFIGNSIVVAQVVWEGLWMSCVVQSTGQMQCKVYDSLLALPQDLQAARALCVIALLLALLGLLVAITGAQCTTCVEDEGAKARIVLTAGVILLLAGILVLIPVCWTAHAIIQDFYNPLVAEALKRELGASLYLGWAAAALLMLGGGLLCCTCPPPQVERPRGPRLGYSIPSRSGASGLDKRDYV
Nature of the assay: biosensor (Forte Octet), intact claudin in virus-like particles (lipoparticles). The procedure:
Affinity of various antibodies against CLDN6 as compared to CLDN9, CLDN3, and CLDN4 was measured using a biosensor. Biosensor affinity measurement of the various antibodies against the proteins was determined using a Forte Octet, which was used for biosensor measurements, using intact claudin proteins embedded in virus-like particles (lipoparticles). The KD for different antibodies is shown below.
For orientation: BLI is a label-free optical method that tracks binding on a fibre tip over time.

Assay [2] deals with T3, Claudin 9. Nature of the assay: flow cytometry, HEK-293T cells transiently transfected with the indicated claudin; pUC19 = empty vector control. The procedure: as §1

B1: IM171 (antibody, V domains shown)
VH: AVTLDESGGGLQTPGGALSLVCKASGFDFSSYAMNWVRQAPGKGLEWVAGIGSTGSSTGYGPAVKGRATISRDNGQSTLRLQLNNLRAEDTAIYYCAKSVGNGNSWSGYIATSIDAWGHGTEVIVSS
VL: ALTQPSSVSANLGGTVKLTCSGGSSGYGWYQQKSPGSAPVTVIYSNDKRPSDIPSRFSGSLSGSTGTLTITGVQADDEAVYFCGSTDNSYVGIFGAGTTLTVL
notes: Detected with anti-human IgG Fc secondary; also called LM171
As for B1, in the assay with Claudin 4, the binding result was “no binding (tested: log [mAb] about -7.2 M)”. Moreover, the “EC50 (read off the curve)” value in the assay with Claudin 6 (human) is around 2 µg/mL. Also, binding in the assay with Claudin 9 [1] was characterised by a dissociation constant (Kd) of 902 nM.

B2: IM173 (antibody, V domains shown)
VH: AVTLDESGGGLQTPGGALSLVCKASGFTFSSYSMFWVRRAPGKGLEWVAGIDSGSTTFYGSAVKGRATISRDNGQSTVRLQLNNLRAEDTATYYCAKDAYGYCGWSGCSADSIDAWGHGTEVIVSS
VL: ALTQPSSVSANPGGTVEITCSGGNNYYGWYQQKSPGSAPVTVIYYNDKRPSDIPSRFSGSKSGSTGTLTITGVQADDEAVYFCGGWDSSGGIFGAGTTLTVL
notes: Detected with anti-human IgG Fc secondary
Take B2: in the assay with Claudin 9 [2], the binding result was “no binding (tested: log [mAb] about -7.2 M)”.
